Biological target: T1, Fc-conjugated HER2 (HER2-Fc), R&D Systems cat. No 1129-ER (human, UniProt P04626 23-652)
T1 construct: Bought reagent; Captured on an anti-Fc surface in the SPR binning; also called rhHER2; HER2 protein (R&D Systems cat.#1129-ER); not shown: Fc part of the bought fusion protein
Assay: SPR epitope binning (ProteOn XPR36), HER2-Fc captured via anti-Fc; competitor 4387; class limits for the pair

B1: antibody 4382 (antibody, human IgG1, kappa, V domains shown)
VH: EVQLQQSGPELVKPGASVKISCTASGYTFTDYYMNWVKQSHGKSLEWIGDINPNNGGTNYNQKWKGKATLTIHKSSSTAYMELRSLTSEDSAVYFCVPGGLRSYFDYWGQGTTLTVSS
VL: DIVMTQSLKFMSASVGDRVSITCKASQDVSAAVAWYQQKPGQSPELLIYWASTRHTGVPDRFTGSGSGTDYTLTISSVQAEDLALYYCQQHYTTPPTFGGGTKLEIKR
notes: Chimeric murine/human IgG1 kappa
With B1 the “% inhibition” value was 25 to 50%.
